Measured values reported in US20100184697A1 (U S OF AMERICA AS REPRESENTED BY THE SECRETAR, published 2010).
Square brackets hold non-standard residues; d marks the D form. Ends that are not written are not given here. rhodamine = not defined here; Nle = CCCC[C@H](N)C(=O)O

How the values were obtained:
[1] = biological target: T1, eGFP-STAT1 (UniProt P42224 1-750); assay: FRET efficiency (1-D0/D1) by rhodamine photobleaching in living cells
T1 construct: Expressed inside living cells; not shown: eGFP (enhanced green fluorescent protein) tag
T1 sequence (looked up): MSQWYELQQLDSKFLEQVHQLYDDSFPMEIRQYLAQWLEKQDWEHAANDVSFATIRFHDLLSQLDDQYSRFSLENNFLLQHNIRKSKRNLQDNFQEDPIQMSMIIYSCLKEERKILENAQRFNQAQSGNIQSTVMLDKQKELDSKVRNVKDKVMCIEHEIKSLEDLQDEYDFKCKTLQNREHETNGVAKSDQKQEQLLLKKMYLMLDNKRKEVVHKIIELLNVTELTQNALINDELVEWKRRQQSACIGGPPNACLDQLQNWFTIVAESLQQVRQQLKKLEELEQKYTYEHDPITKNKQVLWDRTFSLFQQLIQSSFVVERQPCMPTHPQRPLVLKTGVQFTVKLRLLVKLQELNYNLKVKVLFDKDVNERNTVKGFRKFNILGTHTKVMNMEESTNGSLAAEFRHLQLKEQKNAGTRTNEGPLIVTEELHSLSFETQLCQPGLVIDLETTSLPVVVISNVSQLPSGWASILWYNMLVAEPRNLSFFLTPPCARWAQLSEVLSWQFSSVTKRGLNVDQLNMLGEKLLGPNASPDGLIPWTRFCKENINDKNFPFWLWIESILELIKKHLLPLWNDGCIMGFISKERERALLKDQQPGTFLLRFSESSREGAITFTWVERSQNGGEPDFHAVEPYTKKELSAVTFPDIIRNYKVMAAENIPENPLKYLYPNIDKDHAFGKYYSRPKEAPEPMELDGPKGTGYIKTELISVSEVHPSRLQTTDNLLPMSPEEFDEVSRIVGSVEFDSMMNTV
Description: (§1) An additional cysteine residue was positioned at the C-terminus of penetratin to facilitate labeling. Excitation of eGFP (donor) was facilitated using a 488-nm light source, and the emission spectrum was detected. In the absence of energy transfer between eGFP and rhodamine, excitation of eGFP would lead to an emission peak at 520-540 nm, whereas energy transfer from eGFP to an adjacent rhodamine fluorochrome acceptor would cause an emission in the 560-600 nm range. […] To confirm that FRET was occurring, acceptor photobleaching was performed with a 561 nm laser using an LSM 510 confocal microscope (Zeiss).
(§2) Excitation of eGFP was facilitated, and the emission spectrum detected, in accordance with the methods described in Example 6. FRET efficiency was calculated using equation 1-D0/D1, where D0 is fluorescence intensity of eGFP before rhodamine photobleaching and D1 is the intensity after rhodamine photobleaching.

[2] = biological target: T2, eGFP; assay: as above
T2 construct: Control, expressed inside living cells
Description: as §1, §2

[3] = biological target: T3, STAT3 tagged with eGFP on its N-terminus (UniProt P40763 1-770); assay: as above
T3 construct: Stably expressed inside living HEK293 cells; also called eGFP-STAT3; not shown: eGFP (enhanced green fluorescent protein) tag
Description: as §1, §2

[4] = biological target: T1, eGFP-STAT1; assay: FRET (eGFP donor, rhodamine acceptor, acceptor photobleaching) in living cells
[5] = biological target: STAT3 (human, UniProt P40763 2-770, limits assumed); assay: cell-based or functional assay
Sequence of STAT3 (P40763 2-770 limits assumed): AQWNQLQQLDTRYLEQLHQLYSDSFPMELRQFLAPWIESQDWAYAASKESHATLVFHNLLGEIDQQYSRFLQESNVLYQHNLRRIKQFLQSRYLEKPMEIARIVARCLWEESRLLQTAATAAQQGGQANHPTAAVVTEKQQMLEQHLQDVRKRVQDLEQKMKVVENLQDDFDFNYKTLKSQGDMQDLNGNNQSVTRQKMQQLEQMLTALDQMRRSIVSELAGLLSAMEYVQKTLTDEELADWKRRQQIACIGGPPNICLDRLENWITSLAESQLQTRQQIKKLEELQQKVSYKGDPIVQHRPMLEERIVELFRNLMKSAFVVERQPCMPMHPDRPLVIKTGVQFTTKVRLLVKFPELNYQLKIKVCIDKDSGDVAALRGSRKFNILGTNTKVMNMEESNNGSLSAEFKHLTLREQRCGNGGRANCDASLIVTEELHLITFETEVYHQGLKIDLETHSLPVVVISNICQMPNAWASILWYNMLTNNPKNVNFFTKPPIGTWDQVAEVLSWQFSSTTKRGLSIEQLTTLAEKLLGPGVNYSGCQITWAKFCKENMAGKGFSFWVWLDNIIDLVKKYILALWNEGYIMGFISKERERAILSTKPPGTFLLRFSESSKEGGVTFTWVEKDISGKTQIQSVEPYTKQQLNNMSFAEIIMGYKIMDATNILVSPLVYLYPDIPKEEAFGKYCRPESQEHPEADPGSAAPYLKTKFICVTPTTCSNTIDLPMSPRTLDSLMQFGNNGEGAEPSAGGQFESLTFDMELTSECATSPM

T3 sequence (P40763 whole entry): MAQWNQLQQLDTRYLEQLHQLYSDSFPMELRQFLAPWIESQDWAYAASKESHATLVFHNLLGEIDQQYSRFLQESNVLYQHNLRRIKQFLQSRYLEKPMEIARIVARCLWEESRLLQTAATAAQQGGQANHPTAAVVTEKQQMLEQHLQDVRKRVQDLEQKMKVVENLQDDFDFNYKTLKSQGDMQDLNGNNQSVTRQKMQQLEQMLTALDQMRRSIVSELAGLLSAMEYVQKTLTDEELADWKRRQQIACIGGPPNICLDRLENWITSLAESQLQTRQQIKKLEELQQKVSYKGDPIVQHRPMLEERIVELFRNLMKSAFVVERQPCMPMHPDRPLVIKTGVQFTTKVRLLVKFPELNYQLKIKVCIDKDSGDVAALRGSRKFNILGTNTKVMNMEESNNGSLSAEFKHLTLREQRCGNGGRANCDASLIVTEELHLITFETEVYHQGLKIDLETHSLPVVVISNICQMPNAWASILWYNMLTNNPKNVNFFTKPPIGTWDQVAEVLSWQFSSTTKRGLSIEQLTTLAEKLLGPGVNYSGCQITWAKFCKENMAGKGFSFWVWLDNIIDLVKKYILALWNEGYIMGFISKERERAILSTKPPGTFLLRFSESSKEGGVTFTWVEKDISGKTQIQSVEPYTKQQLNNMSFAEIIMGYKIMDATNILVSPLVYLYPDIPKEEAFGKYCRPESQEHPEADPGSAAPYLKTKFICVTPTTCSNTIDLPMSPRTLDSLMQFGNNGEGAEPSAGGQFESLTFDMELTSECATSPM

B1: rhodamine-labeled STAT3-HEL2A-2 (peptide)
peptide: LDTRYLEQLHKLYRQIKIWFPNRR[Nle]KWKKC(rhodamine)
modifications: not fully specified; reading uncertain
notes: Synthetic peptide; also called STAT3-HEL2A-2 labeled with rhodamine
Q: For B1, which FRET efficiency [1] is on record?
A: ~12.8%

Q: And the FRET efficiency [2]?
A: ~15.2%

Q: What about the FRET efficiency [3] of the same binder?
A: 90.8%

Q: Does B1 bind [4]?
A: no binding

B2: Hel2A-3-Pen (peptide)
peptide: Ac-DTRYLEQLHALYRQIKIWFPNRR[Nle]KWKK-NH2
SMILES: CCCC[C@H](NC(=O)[C@H](CCCNC(=N)N)NC(=O)[C@H](CCCNC(=N)N)NC(=O)[C@H](CC(N)=O)NC(=O)[C@@H]1CCCN1C(=O)[C@H](Cc1ccccc1)NC(=O)[C@H](Cc1c[nH]c2ccccc12)NC(=O)[C@@H](NC(=O)[C@H](CCCCN)NC(=O)[C@@H](NC(=O)[C@H](CCC(N)=O)NC(=O)[C@H](CCCNC(=N)N)NC(=O)[C@H](Cc1ccc(O)cc1)NC(=O)[C@H](CC(C)C)NC(=O)[C@H](C)NC(=O)[C@H](Cc1c[nH]cn1)NC(=O)[C@H](CC(C)C)NC(=O)[C@H](CCC(N)=O)NC(=O)[C@H](CCC(=O)O)NC(=O)[C@H](CC(C)C)NC(=O)[C@H](Cc1ccc(O)cc1)NC(=O)[C@H](CCCNC(=N)N)NC(=O)[C@@H](NC(=O)[C@H](CC(=O)O)NC(C)=O)[C@@H](C)O)[C@@H](C)CC)[C@@H](C)CC)C(=O)N[C@@H](CCCCN)C(=O)N[C@@H](Cc1c[nH]c2ccccc12)C(=O)N[C@@H](CCCCN)C(=O)N[C@@H](CCCCN)C(N)=O
Q: Which “Activity, % of control (luciferase reporter, GAS or STAT3 element, MCF-7 cells)” value [5] does the source give for B2 here?
A: 89 % of control
